In PMC11648230, “Structure–function analysis of tRNA t^6A-catalysis, assembly, and thermostability of Aquifex aeolicus TsaD2B2 tetramer in complex with TsaE” (The Journal of Biological Chemistry, 2024):
Values belong to the binder of their own block, whether it stands above or below them.

Experiments:
[1] = target: Aquifex aeolicus TsaD2B^mut2 tetramer (Aquifex aeolicus | Thermotoga maritima) (UniProt O66986)
[2] = target: Aquifex aeolicus TsaD^Δ34–382B2 tetramer (Aquifex aeolicus) (UniProt O66986)
Sequence of Aquifex aeolicus TsaD^Δ34–382B2 tetramer (Aquifex aeolicus) (O66986 other isoform, or with tags, fused parts or gaps mutant, chain 1 of 2): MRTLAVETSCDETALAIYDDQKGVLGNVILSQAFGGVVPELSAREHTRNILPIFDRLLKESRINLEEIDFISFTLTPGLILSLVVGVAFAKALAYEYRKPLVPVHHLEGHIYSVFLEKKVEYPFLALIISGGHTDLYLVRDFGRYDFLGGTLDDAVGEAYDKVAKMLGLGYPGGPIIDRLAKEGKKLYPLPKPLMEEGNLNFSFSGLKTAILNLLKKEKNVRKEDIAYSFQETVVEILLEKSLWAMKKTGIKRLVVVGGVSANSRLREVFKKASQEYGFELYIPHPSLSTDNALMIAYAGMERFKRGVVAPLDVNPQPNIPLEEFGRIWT
Sequence of Aquifex aeolicus TsaD^Δ34–382B2 tetramer (Aquifex aeolicus) (partner O66494, as listed by the source mutant, chain 2 of 2): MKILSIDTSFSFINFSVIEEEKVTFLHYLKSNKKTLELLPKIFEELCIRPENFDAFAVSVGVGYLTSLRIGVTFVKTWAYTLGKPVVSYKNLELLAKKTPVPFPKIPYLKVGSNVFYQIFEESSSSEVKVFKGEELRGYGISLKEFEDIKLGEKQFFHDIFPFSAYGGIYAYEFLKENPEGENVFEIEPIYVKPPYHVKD

[3] = target: Aquifex aeolicus TsaD2B2 tetramer (Aquifex aeolicus) (UniProt O66986)
Sequence of Aquifex aeolicus TsaD2B2 tetramer (Aquifex aeolicus) (O66986 whole entry, chain 1 of 2): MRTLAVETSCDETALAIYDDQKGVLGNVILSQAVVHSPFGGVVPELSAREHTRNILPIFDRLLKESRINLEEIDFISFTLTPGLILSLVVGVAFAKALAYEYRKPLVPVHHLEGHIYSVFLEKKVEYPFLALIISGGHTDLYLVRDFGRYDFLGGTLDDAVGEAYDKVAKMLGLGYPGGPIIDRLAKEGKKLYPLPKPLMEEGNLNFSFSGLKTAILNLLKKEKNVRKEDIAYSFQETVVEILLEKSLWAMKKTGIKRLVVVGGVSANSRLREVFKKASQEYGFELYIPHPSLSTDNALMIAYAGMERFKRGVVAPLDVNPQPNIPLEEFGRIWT
Sequence of Aquifex aeolicus TsaD2B2 tetramer (Aquifex aeolicus) (partner O66494, as listed by the source, chain 2 of 2): as the sequence (partner O66494, as listed by the source mutant, chain 2 of 2) above

[4] = substrate: Nc1ncnc2c1ncn2[C@@H]1O[C@H](COP(=O)(O)OP(=O)(O)OP(=O)(O)O)[C@@H](O)[C@H]1O; assay: NADH-coupled ATPase assay; format: biochemical, Aquifex aeolicus; conditions: 10 uM TsaE with 5 uM TsaD2B2, no tRNA, 10 mM MgCl2, 100 mM KCl, pH 7.5, 37 °C
Excerpt: NADH-coupled ATPase assay on A. aeolicus TsaD2B2E2

[5] = substrate: Nc1ncnc2c1ncn2[C@@H]1O[C@H](COP(=O)(O)OP(=O)(O)OP(=O)(O)O)[C@@H](O)[C@H]1O; assay: NADH-coupled ATPase assay; format: biochemical, Aquifex aeolicus; conditions: 10 uM TsaE alone, 10 mM MgCl2, 100 mM KCl, pH 7.5, 37 °C
Excerpt: NADH-coupled ATPase assay on A. aeolicus TsaE (AaTsaE)

Sequence of Aquifex aeolicus TsaD2B^mut2 tetramer (Aquifex aeolicus | Thermotoga maritima) (O66986 whole entry, looked up): as the sequence (O66986 whole entry, chain 1 of 2) above

Vmax of ATP to ADP hydrolysis by 10 μM TsaE with 5 μM TsaD2B^mut2 (NADH-coupled assay, 37 °C) [1]: 0.125 µM/s
kcat of ATP to ADP hydrolysis by 10 μM TsaE with 5 μM TsaD2B^mut2 (NADH-coupled assay, 37 °C) [1]: 0.025 s⁻¹
Vmax of ATP to ADP hydrolysis by 10 μM TsaE with 5 μM TsaD^Δ34–382B2 (NADH-coupled assay, 37 °C) [2]: 0.219 µM/s
kcat of ATP to ADP hydrolysis by 10 μM TsaE with 5 μM TsaD^Δ34–382B2 (NADH-coupled assay, 37 °C) [2]: 0.044 s⁻¹
Vmax of ATP to ADP hydrolysis by 10 μM TsaE with 5 μM TsaD2B2 (NADH-coupled assay, 37 °C); TsaE alone 0.0374 [3]: 0.0982 µM/s
kcat of ATP to ADP hydrolysis by 10 μM TsaE with 5 μM TsaD2B2 (NADH-coupled assay, 37 °C); TsaE alone 0.007 [3]: 0.02 s⁻¹
B1: Aquifex aeolicus TsaE (enzyme)
chain: MELLKEVILESEEDTYKLAEEIAQLLKGSEVICLRGTLGAGKTTFVKALAKALKVKNPSAVRSPTFTLVNEYETDKGKLIHIDLYRVPDFDYSEFIGEGILAVEWEERDKPCDIILEIEILDENKRKVRIYRK

B2: A. aeolicus TsaD2B2E2 (Aquifex aeolicus VF5) (protein)
chain: B1 chain
notes: recombinant from E. coli; with tRNA N6-adenosine threonylcarbamoyltransferase; tRNA threonylcarbamoyladenosine biosynthesis protein TsaB
Km [4]: 228 ± 47.9 µM
Vmax [4]: 5.89 µM/min
kcat [4]: 0.02 ± 0.0012 s⁻¹
kcat/Km [4]: 86 M⁻¹ s⁻¹

B3: A. aeolicus TsaE (AaTsaE) (Aquifex aeolicus VF5) (protein)
chain: B1 chain
notes: recombinant from E. coli (plasmid pET24d-BC11_Eop); monomer
Km [5]: 96 ± 44.9 µM
Vmax [5]: 2.24 µM/min
kcat [5]: 0.007 ± 0.0007 s⁻¹
kcat/Km [5]: 78 M⁻¹ s⁻¹
